Molecular target: Trypsin
Test: trypsin-inhibitory assay (residual enzyme activity on a fluorogenic substrate); 100 pM trypsin pre-incubated with peptide (twofold dilution series) for 3 h at room temperature in 0.1 M NaCl, 10 mM CaCl2, 0.005% Triton X-100, 0.1 M Tris-HCl pH 8.0; residual activity with 10 uM Boc-Q-A-R-7-amido-4-methyl-coumarin; IC50 from a nonlinear fit of initial velocities (Prism)

Trypsin, sequence (P00760 24-246): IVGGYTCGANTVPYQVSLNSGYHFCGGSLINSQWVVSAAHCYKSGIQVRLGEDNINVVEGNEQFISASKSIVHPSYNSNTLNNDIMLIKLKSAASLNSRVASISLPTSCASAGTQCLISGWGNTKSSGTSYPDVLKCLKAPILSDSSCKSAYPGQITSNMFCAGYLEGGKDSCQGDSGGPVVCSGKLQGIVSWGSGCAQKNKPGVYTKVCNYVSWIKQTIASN

| IC50 [nM] | Substance |
| --- | --- |
| 0.332 | cell-free synthesized linear oxidized circularly permuted SFTI (prmSFTI) (peptide) |
| 0.361 | chemically synthesized linear oxidized circularly permuted SFTI (prmSFTI) (peptide) |

| Substance | IC50 [nM] |
| --- | --- |
| chemically synthesized backbone-cyclic sunflower trypsin inhibitor (SFTI) (peptide) | 0.171 |

Reference: article PMC8752827, “Towards a generic prototyping approach for therapeutically-relevant peptides and proteins in a cell-free translation system” (Nature Communications, 2022)
